{"source": "IntAct's records for PubMed 11777938", "parents": {"B1": {"name": "Anaphase-promoting complex subunit 8 (Schizosaccharomyces pombe (strain ATCC 38366 / 972)), O94556 (parent)", "chain": "MTVSLNTMMGVDGLEDQEQLREIRNCLLKCISECSERGLVYAVRWAAEMLNGMNPIEMEHIPFSSTPTGEFDLDPDMANEKLLEVEEKNIYLLAKSYFDCKEFERAAYTLQNCKSSKSIFLRLYSKYLAGEKKSEEENETLLNTNLTLSSTNREFYYISEVLESLHYQGNKDPYLLYLSGVVYRKRKQDSKAIDFLKSCVLKAPFFWSAWLELSLSIDSLETLTTVVSQLPSTHIMTKIFYVYASHELHQVNSSAYEKLAEAEIIFPNSRYLKTQRALLTYDSRDFDEAESLFENILTNDPYRLDDMDTYSNVLFVLENKSKLGFLAQVASSIDKFRPETCSIIGNYYSLLSEHEKAVTYFKRALQLNRNYLSAWTLMGHEYVELKNTHAAIESYRLAVDVNRKDYRAWYGLGQTYEVLDMHFYALYYFQRATALRPYDQRMWQALGNCYEKIDRPQEAIKSYKRALLGSQTNSSILVRLGNLYEELQDLNSAASMYKQCIKTEETEISPETIKARIWLARWELGKKNYREAELYLSEVLNGDLELEEAKALLRELRSRMEHSYD", "partner": "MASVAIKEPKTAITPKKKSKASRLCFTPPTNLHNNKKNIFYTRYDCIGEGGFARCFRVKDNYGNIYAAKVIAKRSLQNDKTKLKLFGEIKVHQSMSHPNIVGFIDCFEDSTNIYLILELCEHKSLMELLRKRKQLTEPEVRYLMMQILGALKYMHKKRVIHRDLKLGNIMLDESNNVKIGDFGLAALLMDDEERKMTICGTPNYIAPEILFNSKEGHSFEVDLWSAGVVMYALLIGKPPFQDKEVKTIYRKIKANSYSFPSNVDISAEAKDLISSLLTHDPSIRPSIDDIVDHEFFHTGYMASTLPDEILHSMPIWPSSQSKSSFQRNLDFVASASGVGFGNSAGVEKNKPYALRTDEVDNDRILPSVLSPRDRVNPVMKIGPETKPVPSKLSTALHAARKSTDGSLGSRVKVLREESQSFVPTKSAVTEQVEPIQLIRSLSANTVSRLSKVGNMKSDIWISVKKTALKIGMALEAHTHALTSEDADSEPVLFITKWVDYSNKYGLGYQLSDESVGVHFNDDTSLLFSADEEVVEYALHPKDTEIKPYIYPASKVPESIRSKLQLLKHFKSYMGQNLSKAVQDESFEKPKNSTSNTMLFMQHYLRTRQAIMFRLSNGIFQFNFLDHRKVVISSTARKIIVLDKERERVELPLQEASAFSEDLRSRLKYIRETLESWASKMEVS"}}, "data": [{"variants_of": "B1", "details": "with plo1_schpo plo1, P50528", "values": [{"variant": "S349N", "effect of a mutation on the interaction": "decreasing interaction"}]}]}
